Patent US20190338035A1 (EUREKA THERAPEUTICS, published 2019)
Positions count from the first letter of the chain named. Names and notes keep the numbering of the source.

B1: Phage clone 13 (scFv)
scFv: DVVMTQSPLSLPVTLGQPASISCRSSQSLIYSNGNTYLTWFHQRPGQPPRRLIHKVSNRDSGVPDRFSGSGSGSDFTLKISRVEAEDVGIYYCMQGTHWPPTFGGGTKLEIKRSRGGGGSGGGGSGGGGSLEMAEVQLVQSGAEVKKPGESLKISCKGSGYSFTSYWIGWVRQMPGKGLEWMGIIYPGDSDTRYSPSFQGQVTISADKSISTAYLQWSSLKASDTAMYYCARGYDVWGQGTLVTVSS
notes: fusion to the phage coat protein not described
B2: Phage clone 5 (scFv)
scFv: B1 scFv with I30V, T39N, P48S, H54Y, K55E, S74T, I90V, V236G
notes: fusion to the phage coat protein not described; also called anti-HMC scFv 5
B3: Phage clone 16 (scFv)
scFv: B1 scFv with V236S
notes: as for B1
B4: Phage clone 31 (scFv)
scFv: QAVLTQPSSLSASPGASASLTCTLRSGINVGTYRIYWYQQKPGSPPQYLLRYKSDSDKQQGSGVPSRFSGSKDASANAGILLISGLQSEDEADYYCMIWHSSAWVFGGGTKLTVLGSRGGGGSGGGGSGGGGSLEMAEVQLVESGGGLVQPGGSLRLSCAASGLTFDRYAMSWVRQAAGKGLERFSAITGDGYYTYYADSVKGRFTISRDNSKNTLYLQMNSLGAEDTAVYYCARLSGIGRSSYDGWGQGTLVTVSS
notes: as for B1
B5: Phage clone 38 (scFv)
scFv: SYELTQPPSVSVAPGKTARITCGGNNIGSKSVNWYQQKPGQAPVLVIYYDNDRPSGIPERFSGSNSGNTATLTISRVEAGDEADYYCQVWNSSSDHYVFGTGTKVTVLGSRGGGGSGGGGSGGGGSLEMAQMQLVQSGAEVKTTGASVRVSCKASGYTFTDYYLHWVRQAPGQGLEWMGWINPHSGGTNYAQKFQGRVTMTRDTSISTAYMELSSLRSDDTAVYYCAREDYSGSGSSDAWGQGTLVTVSS
notes: as for B1
B6: Phage clone 10 (scFv)
scFv: EIVLTQSPLSLPVTLGQPASISCRSSQSLVYSNGNTYLSWFHQRPGQSPRRLIYKVSKRDSGVPDRFSGSGSGTDFTLKISRVEAEDVGVFYCMQGTYWPYTFGQGTKLEIKRSRGGGGSGGGGSGGGGSLEMAEVQLVQSGAEVKKPGESLKISCKGSGYSFTSYWIGWVRQMPGKGLEWMGIIYPGDSDTRYSPSFQGQVTISADKSISTAYLQWSSLKASDTAMYYCARGFDNWGQGTLVTVSS
notes: as for B1
B7: Phage clone 32 (scFv)
scFv: QSVLTQPPSVSGAPGQRVTISCTGSSSNLGAGYDVHWYQQLPGTAPKVLVYFNNNRPSGVPDRFSGSKSGTSASLAITGLQAEDEADYYCQSYDSSLSASVFGTGTKVTVLGSRGGGGSGGGGSGGGGSLEMAQVQLVESGAEVKKPGASVKVSCKASGYTFTSYTITWVRQAPGQGLEWMGWISPYNGNTNYAQNLQGRVTMTTDTSTTTAYMELRSLTSDDTAVYYCARSWEHGFPYDEWGQGTLVTVSS
B8: Phage clone 34 (scFv)
scFv: QSVLTQPPSVSGAPGQRVTISCTGSSLNLGAGYDVHWYQQFPGTAPKLLIFANTNRPSGVPDRFSASKSGTSASLAITGLQAEDEADYFCQSYDNSLSGYVFGTGTKVTVLGSRGGGGSGGGGSGGGGSLEMAQVQLVQSGAEVKKPGSSVKVSCKASGGTFSSYAISWVRQAPGQGLEWMGGIIPIFGTANYAQKFQGRVTITADESTSTAYMELSSLRSEDTAVYYCARSYWTFEYSIDSWGQGTLVTVSS
B9: Phage clone 36 (scFv)
scFv: SSELTQDPAVSVALGQTVRITCQGDSLRSYYANWYQQKPGQAPVLVIYAKSNRPSGIADRFSGSSSGNTASLTITGAQAEDEADYYCNSRDSSGNRWVFGGGTKVTVLGSRGGGGSGGGGSGGGGSLEMAEVQLVQSGAEVKKPGASVKVSCKASGYTFTGYYMHWVRQAPGKGLEWMGGFDPEDGETIYAQKFQGRVTMTEDTSTDTAYMELSSLRSEDTAVYYCARSSWWSPVTYYDIWGQGTLVTVSS
notes: as for B1
B10: WT H3.1 26-35 peptide (peptide)
peptide: RKSAPATGGV
notes: Free synthetic peptide pulsed onto T2 cells; also called H3.1 26-35 WT peptide
B11: mutant histone K27M-H3.3 26-35 peptide (peptide)
peptide: RMSAPSTGGV
notes: Free synthetic peptide pulsed onto T2 cells
B12: mutant histone K27M-H3.1 26-35 peptide (peptide)
peptide: RMSAPATGGV
notes: as for B11
B13: Phage clone 35 (scFv)
scFv: SYVLTQPPSASGTPGQRVTISCSGSTFNIGSNTVNWYQQLPATAPKLLIYSNNQRPSGVPDRFSGSKSGTSASLAISGLQSEDAAAYYCAAWDDSLSGHVVFGGGTKLTVLGSRGGGGSGGGGSGGGGSLEMAEVQLVQSGAEVKKPGASVKVSCKASGYTFTSYGISWVRQAPGQGLEWMGWISAYNGNTNYAQKLQGRVTMTTDTSTSTAYMELRSLRSDDTAVYYCARYYESGYPFDWWGQGTLVTVSS
B14: Phage clone 33 (scFv)
scFv: QSVLTQPPSVSGAPGQRVTIFCTGSSSNIGAGYDVHWYQQLPGTAPKLLIYGNNNRPSGVPDRFSGSKSGTSASLAITGLQAEDEADYYCQSYDTSLTPVFGGGTKLTVLGSRGGGGSGGGGSGGGGSLEMAEVQLVQSGAEVRKPGSSVKVSCKASAGTFNRYSLSWVRQAPGQGLEWVGRIIPIIGVADYAQKFQGRVTITADKSATTAYMELHSLRSEDTAVYYCARQEYSYAMDYWGQGTLVTVSS
notes: as for B1

Assays:
[1] = biological target: T1, WT H3.3 26-35 peptide/HLA-A*02:01 complex on T2 cells (human); test: flow cytometry, scFv phage on T2 cells, anti-M13 + PE anti-mouse IgG
T1 construct: whole, on cells; T2 cells pulsed with the synthetic peptide; also called T2-WT H3.3; T2-WT 3.3

[2] = biological target: T2, HLA-A*02:01 on T2 cells without peptide loading (human); test: as above
T2 construct: whole, on cells; TAP-deficient T2 cells with no exogenous peptide

[3] = biological target: T3, control peptide mixture P20/HLA-A*02:01 complexes on T2 cells (human); test: as above
T3 construct: whole, on cells; A pool of 20 different peptide/HLA-A*02:01 complexes on one cell population, not a single complex; also called T2-P20

[4] = biological target: T4, WT H3.1 26-35 peptide/HLA-A*02:01 complex on T2 cells (human); test: as above
T4 construct: whole, on cells; T2 cells pulsed with the synthetic peptide; also called T2-WT H3.1; T2-WT 3.1

[5] = biological target: T2, HLA-A*02:01 on T2 cells without peptide …; test: flow cytometry, scFv phage on T2 cells
[6] = biological target: T1, WT H3.3 26-35 peptide/HLA-A*02:01 …; test: flow cytometry, scFv phage on T2 cells, anti-M13 + labelled anti-mouse IgG
[7] = biological target: T2, HLA-A*02:01 on T2 cells without peptide …; test: as above
[8] = biological target: T3, control peptide mixture P20/HLA-A*02:01 …; test: as above
[9] = biological target: T2, HLA-A*02:01 on T2 cells without peptide …; test: T2 stabilisation assay, BB7.2 staining, flow cytometry

| Binder | Median MFI (PE-A) [1] [MFI] | Median MFI (PE-A) [3] [MFI] | Median MFI (PE-A) [4] [MFI] | Median MFI (PE-A) [6] [MFI] | Median MFI (PE-A) [8] [MFI] | also measured |
| --- | --- | --- | --- | --- | --- | --- |
| B1 | 784 | 1560 | 761 |  |  | Median MFI (PE-A) [2]: 543 MFI |
| B2 | 305 | 703 | 320 |  |  |  |
| B3 | 2440 | 4190 | 2320 |  |  | Median MFI (PE-A) [2]: 1700 MFI |
| B4 | 777 | 128 | 529 |  |  | binding result [5]: no binding; Median MFI (PE-A) [2]: 125 MFI |
| B5 |  |  |  | 32900 | 128 | Median MFI (PE-A) [7]: 66 MFI |
| B6 | 849 | 2010 | 770 |  |  | Median MFI (PE-A) [2]: 686 MFI |
| B7 |  |  |  | 90800 | 146 | Median MFI (PE-A) [7]: 132 MFI |
| B8 |  |  |  | 8340 | 109 | Median MFI (PE-A) [7]: 109 MFI |
| B9 |  |  |  | 33600 | 11000 |  |
| B10 |  |  |  |  |  | binding result [9]: binds |
| B11 |  |  |  |  |  | binding result [9]: binds |
| B12 |  |  |  |  |  | binding result [9]: binds |
| B13 |  |  |  | 84200 | 124 | Median MFI (PE-A) [7]: 125 MFI |
| B14 |  |  |  | 49100 | 2860 |  |
